According to patent US20240279298A1 (BEIJING TUO JIE BIOPHARMACEUTICAL CO. LTD., priority 2021, published 2024):
Counter-ions that a name gives are not always drawn. [ ]: non-standard residue; d: D form. Aib = CC(C)(N)C(=O)O

T1: human glucose-dependent insulinotropic polypeptide receptor (GIPR) (human, UniProt P48546 22-466)
T1 sequence (looked up): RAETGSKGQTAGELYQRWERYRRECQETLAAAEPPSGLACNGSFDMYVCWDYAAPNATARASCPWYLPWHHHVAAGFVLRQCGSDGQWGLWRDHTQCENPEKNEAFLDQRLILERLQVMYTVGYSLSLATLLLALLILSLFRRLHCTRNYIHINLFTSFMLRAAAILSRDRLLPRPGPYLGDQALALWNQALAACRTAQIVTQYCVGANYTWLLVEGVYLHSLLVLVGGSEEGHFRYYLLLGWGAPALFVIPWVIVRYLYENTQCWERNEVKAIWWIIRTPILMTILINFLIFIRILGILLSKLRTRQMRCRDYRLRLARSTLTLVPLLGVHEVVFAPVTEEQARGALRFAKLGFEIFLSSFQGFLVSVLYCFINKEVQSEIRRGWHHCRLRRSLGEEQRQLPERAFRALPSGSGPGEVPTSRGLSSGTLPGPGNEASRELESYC


Assays:
[1] = tested on: insulin-induced hypoglycemia rat model; test: Efficacy in insulin-induced hypoglycemic rat model; type: in vivo, SD rats; conditions: insulin 0.65 IU/kg subcutaneous at T0, phosphate buffer at 45 min (model control)
in vitro = conditions: human, human kidney microsomes
human kidney microsomes = test: Stability in human kidney microsome incubation system
[2] = target: human glucagon receptor (GCGR) (human, UniProt P47871 26-477); test: cell-based or functional assay
Chain of human glucagon receptor (GCGR) (P47871 26-477): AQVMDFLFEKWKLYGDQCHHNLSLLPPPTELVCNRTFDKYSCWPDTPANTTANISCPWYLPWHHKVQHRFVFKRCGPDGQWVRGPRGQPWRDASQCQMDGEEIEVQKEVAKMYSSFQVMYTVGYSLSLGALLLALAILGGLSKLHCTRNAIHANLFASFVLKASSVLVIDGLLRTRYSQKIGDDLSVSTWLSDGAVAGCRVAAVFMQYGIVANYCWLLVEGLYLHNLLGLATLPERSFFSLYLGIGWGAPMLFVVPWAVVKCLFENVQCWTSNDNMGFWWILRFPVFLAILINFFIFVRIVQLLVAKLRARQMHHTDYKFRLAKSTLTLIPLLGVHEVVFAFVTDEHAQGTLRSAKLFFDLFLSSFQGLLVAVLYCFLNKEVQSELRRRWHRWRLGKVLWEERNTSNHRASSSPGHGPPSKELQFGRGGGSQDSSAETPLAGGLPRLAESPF

[3] = target: T1, human glucose-dependent insulinotropic …; test: cell-based or functional assay
[4] = target: human glucagon-like peptide-1 receptor (GLP-1R) (human, UniProt P43220 24-463); test: cell-based or functional assay

Row | Human GCGR receptor EC50 (nM), cAMP HTRF in CHO-K1/GCGR/CRE-Luc cells [2] [nM] | Relative activity (%) (normalized by the activity of the native glucagon), cAMP HTRF [2] | GIPR % Activity relative to native GIP, cAMP HTRF [3] [%] | GIPR EC50 (nM), cAMP HTRF in CHO-K1/GIPR cells [3] [nM] | GLP-1R % Activity relative to native GLP-1, cAMP HTRF [4] [%] | GLP-1R EC50 (nM), cAMP HTRF in CHO-GLP-1R cells [4] [nM] | Molecule | also measured
1 |  |  |  |  |  |  | Insulin: insulin, 0.65 IU/kg subcutaneous, used to induce hypoglycemia in the modeling groups [reference compound] | Blood glucose 60 min [1]: 3.47 mmol/L; Blood glucose 75 min [1]: 4.15 mmol/L; Blood glucose 90 min [1]: 4.85 mmol/L; Blood glucose 105 min [1]: 5.42 mmol/L
2 |  |  |  |  |  |  | CN(C)CCCOc1nn(Cc2ccccc2)c2ccccc12 [Benzydamine hydrochloride, benzydamine hydrochloride] | half-life at 1 μM (in vitro): 1.1 h; remaining at 0.25 h, 1 μM (in vitro): 83.1%; remaining at 0.5 h, 1 μM (in vitro): 70.8%; remaining at 1 h, 1 μM (in vitro): 54.2%; Percentage residues 0 min (human kidney microsomes; With NADPH): 100.0%; Percentage residues 120 min (human kidney microsomes; With NADPH): 28.12%; Percentage residues 0 min (human kidney microsomes; Without NADPH): 100.0%; Percentage residues 15 min (human kidney microsomes; Without NADPH): 85.59%; Percentage residues 30 min (human kidney microsomes; Without NADPH): 86.82%; Percentage residues 60 min (human kidney microsomes; Without NADPH): 90.39%; Percentage residues 120 min (human kidney microsomes; Without NADPH): 90.95%
3 | 0.076 | 253 |  |  |  |  | H-HSHGTFTSDYSKYLDL[Aib]RAQEFVEWLEST-OH (SMILES CC(C)C[C@H](NC(=O)[C@H](Cc1ccc(O)cc1)NC(=O)[C@H](CCCCN)NC(=O)[C@H](CO)NC(=O)[C@H](Cc1ccc(O)cc1)NC(=O)[C@H](CC(=O)O)NC(=O)[C@H](CO)NC(=O)[C@@H](NC(=O)[C@H](Cc1ccccc1)NC(=O)[C@@H](NC(=O)CNC(=O)[C@H](Cc1c[nH]cn1)NC(=O)[C@H](CO)NC(=O)[C@@H](N)Cc1c[nH]cn1)[C@@H](C)O)[C@@H](C)O)C(=O)N[C@@H](CC(=O)O)C(=O)N[C@@H](CC(C)C)C(=O)NC(C)(C)C(=O)N[C@@H](CCCNC(=N)N)C(=O)N[C@@H](C)C(=O)N[C@@H](CCC(N)=O)C(=O)N[C@@H](CCC(=O)O)C(=O)N[C@@H](Cc1ccccc1)C(=O)N[C@H](C(=O)N[C@@H](CCC(=O)O)C(=O)N[C@@H](Cc1c[nH]c2ccccc12)C(=O)N[C@@H](CC(C)C)C(=O)N[C@@H](CCC(=O)O)C(=O)N[C@@H](CO)C(=O)N[C@H](C(=O)O)[C@@H](C)O)C(C)C) [Glucagon analog compound 47] | 
4 | 0.052 | 371 |  |  |  |  | H-HSHGTFTSDYSKYLDL[Aib]RAQEFVQWLEST-OH (SMILES CC(C)C[C@H](NC(=O)[C@H](Cc1ccc(O)cc1)NC(=O)[C@H](CCCCN)NC(=O)[C@H](CO)NC(=O)[C@H](Cc1ccc(O)cc1)NC(=O)[C@H](CC(=O)O)NC(=O)[C@H](CO)NC(=O)[C@@H](NC(=O)[C@H](Cc1ccccc1)NC(=O)[C@@H](NC(=O)CNC(=O)[C@H](Cc1c[nH]cn1)NC(=O)[C@H](CO)NC(=O)[C@@H](N)Cc1c[nH]cn1)[C@@H](C)O)[C@@H](C)O)C(=O)N[C@@H](CC(=O)O)C(=O)N[C@@H](CC(C)C)C(=O)NC(C)(C)C(=O)N[C@@H](CCCNC(=N)N)C(=O)N[C@@H](C)C(=O)N[C@@H](CCC(N)=O)C(=O)N[C@@H](CCC(=O)O)C(=O)N[C@@H](Cc1ccccc1)C(=O)N[C@H](C(=O)N[C@@H](CCC(N)=O)C(=O)N[C@@H](Cc1c[nH]c2ccccc12)C(=O)N[C@@H](CC(C)C)C(=O)N[C@@H](CCC(=O)O)C(=O)N[C@@H](CO)C(=O)N[C@H](C(=O)O)[C@@H](C)O)C(C)C) [Glucagon analog compound 43] | 
5 | 0.072 | 268 | < 0.07 | > 100 | 0.212 | 127 | H-HSQGTFTSDYSKYLDT[Aib]RAQEFVQWLEST-OH (SMILES CC(C)C[C@H](NC(=O)[C@H](Cc1c[nH]c2ccccc12)NC(=O)[C@H](CCC(N)=O)NC(=O)[C@@H](NC(=O)[C@H](Cc1ccccc1)NC(=O)[C@H](CCC(=O)O)NC(=O)[C@H](CCC(N)=O)NC(=O)[C@H](C)NC(=O)[C@H](CCCNC(=N)N)NC(=O)C(C)(C)NC(=O)[C@@H](NC(=O)[C@H](CC(=O)O)NC(=O)[C@H](CC(C)C)NC(=O)[C@H](Cc1ccc(O)cc1)NC(=O)[C@H](CCCCN)NC(=O)[C@H](CO)NC(=O)[C@H](Cc1ccc(O)cc1)NC(=O)[C@H](CC(=O)O)NC(=O)[C@H](CO)NC(=O)[C@@H](NC(=O)[C@H](Cc1ccccc1)NC(=O)[C@@H](NC(=O)CNC(=O)[C@H](CCC(N)=O)NC(=O)[C@H](CO)NC(=O)[C@@H](N)Cc1c[nH]cn1)[C@@H](C)O)[C@@H](C)O)[C@@H](C)O)C(C)C)C(=O)N[C@@H](CCC(=O)O)C(=O)N[C@@H](CO)C(=O)N[C@H](C(=O)O)[C@@H](C)O) [Glucagon analog compound 39] | 
6 | 0.06 | 318 | < 0.07 | > 100 | 0.192 | 140 | H-HSQGTFTSDYSKYLDL[Aib]RAQEFVQWLEST-OH (SMILES CC(C)C[C@H](NC(=O)[C@H](Cc1ccc(O)cc1)NC(=O)[C@H](CCCCN)NC(=O)[C@H](CO)NC(=O)[C@H](Cc1ccc(O)cc1)NC(=O)[C@H](CC(=O)O)NC(=O)[C@H](CO)NC(=O)[C@@H](NC(=O)[C@H](Cc1ccccc1)NC(=O)[C@@H](NC(=O)CNC(=O)[C@H](CCC(N)=O)NC(=O)[C@H](CO)NC(=O)[C@@H](N)Cc1c[nH]cn1)[C@@H](C)O)[C@@H](C)O)C(=O)N[C@@H](CC(=O)O)C(=O)N[C@@H](CC(C)C)C(=O)NC(C)(C)C(=O)N[C@@H](CCCNC(=N)N)C(=O)N[C@@H](C)C(=O)N[C@@H](CCC(N)=O)C(=O)N[C@@H](CCC(=O)O)C(=O)N[C@@H](Cc1ccccc1)C(=O)N[C@H](C(=O)N[C@@H](CCC(N)=O)C(=O)N[C@@H](Cc1c[nH]c2ccccc12)C(=O)N[C@@H](CC(C)C)C(=O)N[C@@H](CCC(=O)O)C(=O)N[C@@H](CO)C(=O)N[C@H](C(=O)O)[C@@H](C)O)C(C)C) [Glucagon analog compound 40] | 
7 | 0.058 | 333 | < 0.07 | > 100 | 0.231 | 116 | H-HSQGTFTSDYSKYLDV[Aib]RAQEFVQWLEST-OH (SMILES CC(C)C[C@H](NC(=O)[C@H](Cc1c[nH]c2ccccc12)NC(=O)[C@H](CCC(N)=O)NC(=O)[C@@H](NC(=O)[C@H](Cc1ccccc1)NC(=O)[C@H](CCC(=O)O)NC(=O)[C@H](CCC(N)=O)NC(=O)[C@H](C)NC(=O)[C@H](CCCNC(=N)N)NC(=O)C(C)(C)NC(=O)[C@@H](NC(=O)[C@H](CC(=O)O)NC(=O)[C@H](CC(C)C)NC(=O)[C@H](Cc1ccc(O)cc1)NC(=O)[C@H](CCCCN)NC(=O)[C@H](CO)NC(=O)[C@H](Cc1ccc(O)cc1)NC(=O)[C@H](CC(=O)O)NC(=O)[C@H](CO)NC(=O)[C@@H](NC(=O)[C@H](Cc1ccccc1)NC(=O)[C@@H](NC(=O)CNC(=O)[C@H](CCC(N)=O)NC(=O)[C@H](CO)NC(=O)[C@@H](N)Cc1c[nH]cn1)[C@@H](C)O)[C@@H](C)O)C(C)C)C(C)C)C(=O)N[C@@H](CCC(=O)O)C(=O)N[C@@H](CO)C(=O)N[C@H](C(=O)O)[C@@H](C)O) [Glucagon analog compound 41] | 
8 | 0.093 | 207 | < 0.07 | > 100 | 0.291 | 92.1 | H-HSQGTFTSDYSKYLDI[Aib]RAQEFVQWLEST-OH (SMILES CC[C@H](C)[C@H](NC(=O)[C@H](CC(=O)O)NC(=O)[C@H](CC(C)C)NC(=O)[C@H](Cc1ccc(O)cc1)NC(=O)[C@H](CCCCN)NC(=O)[C@H](CO)NC(=O)[C@H](Cc1ccc(O)cc1)NC(=O)[C@H](CC(=O)O)NC(=O)[C@H](CO)NC(=O)[C@@H](NC(=O)[C@H](Cc1ccccc1)NC(=O)[C@@H](NC(=O)CNC(=O)[C@H](CCC(N)=O)NC(=O)[C@H](CO)NC(=O)[C@@H](N)Cc1c[nH]cn1)[C@@H](C)O)[C@@H](C)O)C(=O)NC(C)(C)C(=O)N[C@@H](CCCNC(=N)N)C(=O)N[C@@H](C)C(=O)N[C@@H](CCC(N)=O)C(=O)N[C@@H](CCC(=O)O)C(=O)N[C@@H](Cc1ccccc1)C(=O)N[C@H](C(=O)N[C@@H](CCC(N)=O)C(=O)N[C@@H](Cc1c[nH]c2ccccc12)C(=O)N[C@@H](CC(C)C)C(=O)N[C@@H](CCC(=O)O)C(=O)N[C@@H](CO)C(=O)N[C@H](C(=O)O)[C@@H](C)O)C(C)C) [Glucagon analog compound 42] | 
